B1: human ribonucleotide reductase β subunit (enzyme)
chain: TKAAAPGVEDEPLLRENPRRFVIFPIEYHDIWQMYKKAEASFWTAEEVDLSKDIQHWESLKPEERYFISHVLAFFAASDGIVNENLVERFSQEVQITEARCFYGFQIAMENIHSEMYSLLIDTYIKDPKEREFLFNAIETMPCVKKKADWALRWIGDKEATYGERVVAFAAVEGIFFSGSFASIFWLKKRGLMPGLTFSNELISRDEGLHCDFACLMFKHLVHKPSEERVREIIINAVRIEQEFLTEALPVKLIGMNCTLMKQYIEFVADRLMLELGFSKVFRVENPFDFMENISLEGKTNFFEKRVGEYQRMGVMSSPTENSFTLDADF
notes: human ribonucleotide reductase β (small) subunit, homodimer β2 with the diferric-tyrosyl radical cofactor; also called β2; human β
B2: human ribonucleotide reductase large subunit (alpha) (enzyme, UniProt P23921 1-792, looked up)
chain: MHVIKRDGRQERVMFDKITSRIQKLCYGLNMDFVDPAQITMKVIQGLYSGVTTVELDTLAAETAATLTTKHPDYAILAARIAVSNLHKETKKVFSDVMEDLYNYINPHNGKHSPMVAKSTLDIVLANKDRLNSAIIYDRDFSYNYFGFKTLERSYLLKINGKVAERPQHMLMRVSVGIHKEDIDAAIETYNLLSERWFTHASPTLFNAGTNRPQLSSCFLLSMKDDSIEGIYDTLKQCALISKSAGGIGVAVSCIRATGSYIAGTNGNSNGLVPMLRVYNNTARYVDQGGNKRPGAFAIYLEPWHLDIFEFLDLKKNTGKEEQRARDLFFALWIPDLFMKRVETNQDWSLMCPNECPGLDEVWGEEFEKLYASYEKQGRVRKVVKAQQLWYAIIESQTETGTPYMLYKDSCNRKSNQQNLGTIKCSNLCTEIVEYTSKDEVAVCNLASLALNMYVTSEHTYDFKKLAEVTKVVVRNLNKIIDINYYPVPEACLSNKRHRPIGIGVQGLADAFILMRYPFESAEAQLLNKQIFETIYYGALEASCDLAKEQGPYETYEGSPVSKGILQYDMWNVTPTDLWDWKVLKEKIAKYGIRNSLLIAPMPTASTAQILGNNESIEPYTSNIYTRRVLSGEFQIVNPHLLKDLTERGLWHEEMKNQIIACNGSIQSIPEIPDDLKQLYKTVWEISQKTVLKMAAERGAFIDQSQSLNIHIAEPNYGKLTSMHFYGWKQGLKTGMYYLRTRPAANPIQFTLNKEKLKDKEKVSKEEEEKERNTAAMVCSLENRDECLMCGS
notes: human ribonucleotide reductase α (large) subunit, 792 residues; the final cryo-EM model holds two residues of tag and residues 1-743, and the 49-residue C-terminal tail is disordered; The number of copies depends on the nucleotides: α2 with TTP, α6 ring (three α2) with dATP, ATP, dATP + ATP, ClFDP or ClFTP; also called human α

Key:
[1] = molecular target: B2; experiment: negative stain EM; 3 μM α and 3 μM β with 3 mM ATP, 0.05 mM dATP, 1 mM CDP in 50 mM HEPES pH 7.6, 15 mM MgCl2, 50 mM KCl, 5 mM DTT, 37°C for 2 min, diluted ~20 fold; ISAC averages; conditions: both partners purified
[2] = molecular target: the molecule itself; experiment: cryo-EM structure; 14 μM α with 0.05 mM dATP, 3 mM ATP, 1 mM CDP in 50 mM HEPES pH 7.6, 15 mM MgCl2, 1 mM EDTA, 5 mM DTT, 50 mM KCl, incubated at 37°C; single-particle map at 3.3 Å
[3] = molecular target: the molecule itself; experiment: negative stain EM; α with 0.1 mM TTP, same buffer; 2D class averages

Binder | stoichiometry N [1] | stoichiometry N [2] | stoichiometry N [3]
B1 | 1 β2 per α6 ring | – | –
B2 | – | 6 | 2
